In article PMC9482650, “Quantitative fragmentomics allow affinity mapping of interactomes” (Nature Communications, 2022):

Assays:
Assay in all cases: holdup assay
Design in all cases: key: below the threshold = too weak to quantify, mostly under pKd 3.1 to 4
Details in all cases: plain residues with an end cap or a label only (N-terminal biotin on a linker: ado-ado)
DLG4_1, P78352 = molecular target: DLG4_1, P78352
DLG3_3, Q92796 = molecular target: T1, DLG3_3, Q92796
T1 sequence (Q92796 374-475, limits assumed, looked up): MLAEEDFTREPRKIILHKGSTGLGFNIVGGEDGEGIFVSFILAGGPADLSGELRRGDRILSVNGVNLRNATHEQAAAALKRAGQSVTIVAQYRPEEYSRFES

MAGI1_1, Q96QZ7 = molecular target: MAGI1_1, Q96QZ7
NHERF3_1, Q5T2W1 = molecular target: T2, NHERF3_1, Q5T2W1
T2 sequence (Q5T2W1 4-100, limits assumed, looked up): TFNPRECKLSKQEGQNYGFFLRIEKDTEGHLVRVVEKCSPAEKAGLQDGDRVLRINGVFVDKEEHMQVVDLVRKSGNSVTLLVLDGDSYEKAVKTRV

ARHGAP21, Q5T5U3 = molecular target: T3, ARHGAP21, Q5T5U3
T3 sequence (Q5T5U3 45-169, limits assumed, looked up): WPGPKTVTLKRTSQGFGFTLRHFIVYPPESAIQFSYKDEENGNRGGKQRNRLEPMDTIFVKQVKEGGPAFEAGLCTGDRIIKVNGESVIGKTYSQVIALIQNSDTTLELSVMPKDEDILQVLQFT

MPP7, Q5T2T1 = molecular target: T4, MPP7, Q5T2T1
T4 sequence (Q5T2T1 134-230, limits assumed, looked up): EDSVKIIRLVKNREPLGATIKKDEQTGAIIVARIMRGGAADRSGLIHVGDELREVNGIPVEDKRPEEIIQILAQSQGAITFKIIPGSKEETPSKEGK

GRIP2_5, Q9C0E4 = molecular target: GRIP2_5, Q9C0E4
PDZD2_2, O15018 = molecular target: T5, PDZD2_2, O15018
T5 sequence (O15018 329-429, limits assumed, looked up): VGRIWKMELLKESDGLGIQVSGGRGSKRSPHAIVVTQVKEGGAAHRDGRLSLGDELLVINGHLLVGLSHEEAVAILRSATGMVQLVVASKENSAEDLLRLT

MAGI2_3, Q86UL8 = molecular target: MAGI2_3, Q86UL8
LDB3, O75112 = molecular target: LDB3, O75112
NHERF4_4, Q86UT5 = molecular target: NHERF4_4, Q86UT5
MAST2, Q6P0Q8 = molecular target: MAST2, Q6P0Q8
MPDZ_5, O75970 = molecular target: T6, MPDZ_5, O75970
T6 sequence (O75970 695-796, limits assumed, looked up): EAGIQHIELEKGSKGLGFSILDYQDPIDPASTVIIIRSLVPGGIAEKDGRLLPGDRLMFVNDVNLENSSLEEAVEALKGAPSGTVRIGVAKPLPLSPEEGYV

PICK1, Q9NRD5 = molecular target: PICK1, Q9NRD5
Inadl_4, Q8NI35 = molecular target: Inadl_4, Q8NI35
GRIP2_3, Q9C0E4 = molecular target: GRIP2_3, Q9C0E4
NHERF2_2, Q15599 = molecular target: NHERF2_2, Q15599
NHERF4_2, Q86UT5 = molecular target: NHERF4_2, Q86UT5
IL16_1, Q14005 = molecular target: IL16_1, Q14005
NOS1, P29475 = molecular target: NOS1, P29475
GRID2IP_2, A4D2P6 = molecular target: GRID2IP_2, A4D2P6
APBA1_1, Q02410 = molecular target: T7, APBA1_1, Q02410
T7 sequence (Q02410 651-752, limits assumed, looked up): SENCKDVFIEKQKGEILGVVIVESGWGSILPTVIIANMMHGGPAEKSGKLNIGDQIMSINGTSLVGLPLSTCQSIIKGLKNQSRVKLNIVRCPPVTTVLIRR

MPDZ_10, O75970 = molecular target: T8, MPDZ_10, O75970
T8 sequence (O75970 1624-1722, limits assumed, looked up): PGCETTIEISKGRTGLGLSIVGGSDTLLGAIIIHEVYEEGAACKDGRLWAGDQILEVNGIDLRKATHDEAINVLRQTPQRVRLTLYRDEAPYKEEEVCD

APBA1_2, Q02410 = molecular target: T9, APBA1_2, Q02410
T9 sequence (Q02410 742-832, limits assumed, looked up): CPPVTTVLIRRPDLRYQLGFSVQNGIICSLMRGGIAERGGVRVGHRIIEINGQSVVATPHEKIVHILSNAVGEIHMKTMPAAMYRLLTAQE

SCRIB_2, Q14160 = molecular target: SCRIB_2, Q14160
PARD3_3, Q8TEW0 = molecular target: PARD3_3, Q8TEW0
TX1BP3, O14907 = molecular target: T10, TX1BP3, O14907
T10 sequence (O14907 10-122, limits assumed, looked up): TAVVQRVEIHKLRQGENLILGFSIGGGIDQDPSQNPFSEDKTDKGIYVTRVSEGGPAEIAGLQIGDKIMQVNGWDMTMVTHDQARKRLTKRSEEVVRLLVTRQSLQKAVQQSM

Chain of NHERF2_2, Q15599 (Q15599 142-238): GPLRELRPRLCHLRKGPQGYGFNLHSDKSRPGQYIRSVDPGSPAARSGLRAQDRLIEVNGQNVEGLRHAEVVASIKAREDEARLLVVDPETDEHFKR
Chain of NOS1, P29475 (P29475 9-101): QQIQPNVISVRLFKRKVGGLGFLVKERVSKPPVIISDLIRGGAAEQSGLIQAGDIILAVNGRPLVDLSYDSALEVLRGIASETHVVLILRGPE
Chain of DLG4_1, P78352 (P78352 62-152): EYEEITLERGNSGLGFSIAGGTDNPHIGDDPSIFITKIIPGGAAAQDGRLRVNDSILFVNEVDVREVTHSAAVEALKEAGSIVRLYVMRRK
Chain of IL16_1, Q14005 (Q14005 210-306): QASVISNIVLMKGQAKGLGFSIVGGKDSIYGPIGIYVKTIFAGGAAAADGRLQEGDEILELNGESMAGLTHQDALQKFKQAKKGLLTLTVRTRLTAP
Chain of GRIP2_3, Q9C0E4 (Q9C0E4 238-339): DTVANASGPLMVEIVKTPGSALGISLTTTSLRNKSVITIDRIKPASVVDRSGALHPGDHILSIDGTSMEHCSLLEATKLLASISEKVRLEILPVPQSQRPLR
Chain of Inadl_4, Q8NI35 (Q8NI35 547-651): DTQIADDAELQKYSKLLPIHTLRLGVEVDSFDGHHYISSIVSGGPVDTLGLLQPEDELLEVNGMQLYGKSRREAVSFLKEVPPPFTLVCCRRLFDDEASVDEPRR
Chain of NHERF4_4, Q86UT5 (Q86UT5 464-550): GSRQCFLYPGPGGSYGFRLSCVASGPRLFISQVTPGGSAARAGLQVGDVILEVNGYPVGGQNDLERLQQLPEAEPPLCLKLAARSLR
Chain of LDB3, O75112 (O75112 1-94): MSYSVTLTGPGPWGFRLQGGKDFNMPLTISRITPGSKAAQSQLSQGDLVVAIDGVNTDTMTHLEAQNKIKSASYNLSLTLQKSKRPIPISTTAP
Chain of GRIP2_5, Q9C0E4 (Q9C0E4 544-642): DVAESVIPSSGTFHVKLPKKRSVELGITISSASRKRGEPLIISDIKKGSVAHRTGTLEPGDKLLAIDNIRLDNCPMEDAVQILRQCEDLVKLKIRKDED
Chain of PARD3_3, Q8TEW0 (Q8TEW0 582-685): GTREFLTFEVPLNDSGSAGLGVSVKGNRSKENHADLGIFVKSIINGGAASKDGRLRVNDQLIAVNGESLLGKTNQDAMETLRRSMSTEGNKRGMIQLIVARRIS
Chain of MAGI2_3, Q86UL8 (Q86UL8 600-682): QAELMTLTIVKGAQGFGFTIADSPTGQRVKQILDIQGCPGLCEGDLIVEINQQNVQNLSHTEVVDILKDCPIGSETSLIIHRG
Chain of NHERF4_2, Q86UT5 (Q86UT5 220-308): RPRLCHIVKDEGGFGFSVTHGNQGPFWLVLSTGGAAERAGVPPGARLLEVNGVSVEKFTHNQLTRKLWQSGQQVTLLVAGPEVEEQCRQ
Chain of GRID2IP_2, A4D2P6 (A4D2P6 272-370): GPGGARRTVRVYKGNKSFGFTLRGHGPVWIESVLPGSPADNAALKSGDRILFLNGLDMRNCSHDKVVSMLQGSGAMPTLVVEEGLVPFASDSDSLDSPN
Chain of MAGI1_1, Q96QZ7 (Q96QZ7 1-106): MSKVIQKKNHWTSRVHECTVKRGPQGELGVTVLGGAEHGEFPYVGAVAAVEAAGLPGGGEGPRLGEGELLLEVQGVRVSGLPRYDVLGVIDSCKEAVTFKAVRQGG
Chain of MAST2, Q6P0Q8 (Q6P0Q8 1099-1202): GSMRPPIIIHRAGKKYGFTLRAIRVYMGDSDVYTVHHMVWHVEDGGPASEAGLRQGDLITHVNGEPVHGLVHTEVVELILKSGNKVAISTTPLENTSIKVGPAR
Chain of PICK1, Q9NRD5 (Q9NRD5 17-115): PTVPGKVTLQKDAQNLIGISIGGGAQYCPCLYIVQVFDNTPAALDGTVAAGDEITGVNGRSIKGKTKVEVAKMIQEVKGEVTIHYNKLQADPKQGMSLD
Chain of SCRIB_2, Q14160 (Q14160 857-960): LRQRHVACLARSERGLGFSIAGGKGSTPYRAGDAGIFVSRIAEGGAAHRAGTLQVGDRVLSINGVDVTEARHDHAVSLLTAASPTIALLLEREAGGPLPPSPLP

Binder | pKd (DLG4_1, P78352) | pKd (DLG3_3, Q92796) | pKd (MAGI1_1, Q96QZ7) | pKd (NHERF3_1, Q5T2W1) | pKd (ARHGAP21, Q5T5U3) | pKd (MPP7, Q5T2T1) | pKd (GRIP2_5, Q9C0E4) | pKd (PDZD2_2, O15018) | pKd (MAGI2_3, Q86UL8) | pKd (LDB3, O75112) | pKd (NHERF4_4, Q86UT5) | pKd (MAST2, Q6P0Q8) | pKd (MPDZ_5, O75970) | pKd (PICK1, Q9NRD5) | pKd (Inadl_4, Q8NI35) | pKd (GRIP2_3, Q9C0E4) | pKd (NHERF2_2, Q15599) | pKd (NHERF4_2, Q86UT5) | pKd (IL16_1, Q14005) | pKd (NOS1, P29475) | other results
STKRKLASAV [NCF1, P14598] | below the threshold | below the threshold | below the threshold | below the threshold | below the threshold | below the threshold | below the threshold | 4.51 | below the threshold | below the threshold | below the threshold | 4.54 | below the threshold | below the threshold | below the threshold | below the threshold | below the threshold | below the threshold | 3.52 | 4.07 | pKd (GRID2IP_2, A4D2P6): 4.28; pKd (APBA1_1, Q02410): below the threshold; pKd (MPDZ_10, O75970): 3.64; pKd (APBA1_2, Q02410): 3.88; pKd (SCRIB_2, Q14160): below the threshold; pKd (PARD3_3, Q8TEW0): below the threshold; pKd (TX1BP3, O14907): 3.72
TNSRHGETTV [FZD2, Q14332] | 4.85 | 4.24 | below the threshold | below the threshold | 4.04 | below the threshold | below the threshold | 4.18 | 3.53 | below the threshold | 3.92 | 5.05 | below the threshold | below the threshold | below the threshold | below the threshold | below the threshold | below the threshold | 3.76 | 3.79 | pKd (GRID2IP_2, A4D2P6): 3.53; pKd (APBA1_1, Q02410): below the threshold; pKd (MPDZ_10, O75970): below the threshold; pKd (APBA1_2, Q02410): 3.71; pKd (SCRIB_2, Q14160): 4.42; pKd (PARD3_3, Q8TEW0): below the threshold; pKd (TX1BP3, O14907): 3.68
LESTTVGTSV [KARS1, Q15046] | 4.13 | 3.6 | 3.5 | 4.13 | below the threshold | below the threshold | below the threshold | 4.87 | 3.73 | below the threshold | below the threshold | 5.02 | below the threshold | below the threshold | below the threshold | below the threshold | below the threshold | below the threshold | 3.79 | 3.86 | pKd (GRID2IP_2, A4D2P6): 4.06; pKd (APBA1_1, Q02410): below the threshold; pKd (MPDZ_10, O75970): 3.72; pKd (APBA1_2, Q02410): 4.69; pKd (SCRIB_2, Q14160): 4.46; pKd (PARD3_3, Q8TEW0): below the threshold; pKd (TX1BP3, O14907): 3.6
ILRKSTTTTV [PRR16, Q569H4] | 4.78 | 3.97 | below the threshold | below the threshold | 3.92 | below the threshold | below the threshold | 4.18 | 3.74 | below the threshold | below the threshold | 5.05 | below the threshold | 3.95 | below the threshold | below the threshold | below the threshold | below the threshold | below the threshold | below the threshold | pKd (GRID2IP_2, A4D2P6): 3.8; pKd (APBA1_1, Q02410): below the threshold; pKd (MPDZ_10, O75970): below the threshold; pKd (APBA1_2, Q02410): below the threshold; pKd (SCRIB_2, Q14160): below the threshold; pKd (PARD3_3, Q8TEW0): below the threshold; pKd (TX1BP3, O14907): 3.66
ARESQKVSHV [FAM110B, Q8TC76] | 4.06 | below the threshold | below the threshold | below the threshold | 3.92 | below the threshold | below the threshold | 5.17 | 4.25 | below the threshold | below the threshold | 4.76 | below the threshold | below the threshold | below the threshold | below the threshold | below the threshold | below the threshold | 4.17 | 3.55 | pKd (GRID2IP_2, A4D2P6): 4.66; pKd (APBA1_1, Q02410): below the threshold; pKd (MPDZ_10, O75970): 4.08; pKd (APBA1_2, Q02410): 4.41; pKd (SCRIB_2, Q14160): below the threshold; pKd (PARD3_3, Q8TEW0): below the threshold; pKd (TX1BP3, O14907): 4.9
SPDRDRESIV [SCN5A, Q14524] | 4.46 | below the threshold | below the threshold | 3.72 | 3.91 | below the threshold | below the threshold | 5.4 | 4.02 | below the threshold | 3.88 | 4.53 | below the threshold | 4.21 | below the threshold | below the threshold | below the threshold | below the threshold | 5.08 | 3.7 | pKd (GRID2IP_2, A4D2P6): 3.63; pKd (APBA1_1, Q02410): below the threshold; pKd (MPDZ_10, O75970): 3.55; pKd (APBA1_2, Q02410): 3.55; pKd (SCRIB_2, Q14160): below the threshold; pKd (PARD3_3, Q8TEW0): 3.86; pKd (TX1BP3, O14907): 4.5
